Experiment [1] deals with T1, cynomolgous CD8 (as used in SPR) (cynomolgous monkey).
T1 construct: also called cyno CD8
Briefly: SPR, Fab.

In experiment [2] the target is T2, human CD8 (as used in SPR) (human, UniProt P01732 22-182).
T2 construct: also called huCD8
Put plainly: SPR.

The target in experiment [3] is T1, cynomolgous CD8 (as used in SPR). Briefly: SPR (Fab, by paragraph 255).
Experiment [4] deals with T2, human CD8 (as used in SPR). Briefly: SPR (Fab, by paragraph 255).
The target of experiment [5] is T3, rhesus CD8 on cells (FACS) (rhesus monkey, UniProt P01732 23-235 (human entry)).
T3 construct: also called rhesus monkey CD8
T3 sequence (P01732 other isoform, or with tags, fused parts or gaps limits assumed): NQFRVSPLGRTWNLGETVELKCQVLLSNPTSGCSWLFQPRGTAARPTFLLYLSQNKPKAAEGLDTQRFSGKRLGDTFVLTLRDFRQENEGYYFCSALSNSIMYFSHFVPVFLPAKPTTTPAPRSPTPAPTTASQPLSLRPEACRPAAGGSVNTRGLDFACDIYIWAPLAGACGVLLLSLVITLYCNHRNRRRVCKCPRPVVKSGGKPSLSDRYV
Briefly: FACS.

The target in experiment [6] is T4, cynomolgous CD8 on cells (FACS) (cynomolgous monkey).
T4 construct: whole, on cells; also called cyno CD8
Briefly: FACS.

The target of experiment [7] is T5, human CD8 on cells (FACS) (human, UniProt P01732 22-235).
T5 construct: whole, on cells
T5 sequence (P01732 22-235): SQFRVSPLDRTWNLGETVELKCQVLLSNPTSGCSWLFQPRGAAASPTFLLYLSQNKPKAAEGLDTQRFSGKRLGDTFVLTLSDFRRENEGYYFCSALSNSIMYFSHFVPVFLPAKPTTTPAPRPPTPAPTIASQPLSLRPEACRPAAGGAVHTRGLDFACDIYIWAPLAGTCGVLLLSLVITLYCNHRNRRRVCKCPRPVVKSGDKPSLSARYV
Briefly: FACS.

Experiment [8] concerns the target T1, cynomolgous CD8 (as used in SPR). Briefly: SPR.
Experiment [9] has as its target T6, rat CD8 on CD8+ cells isolated from rat blood (rat, UniProt P07725 27-236).
T6 construct: whole, on cells
T6 sequence (looked up): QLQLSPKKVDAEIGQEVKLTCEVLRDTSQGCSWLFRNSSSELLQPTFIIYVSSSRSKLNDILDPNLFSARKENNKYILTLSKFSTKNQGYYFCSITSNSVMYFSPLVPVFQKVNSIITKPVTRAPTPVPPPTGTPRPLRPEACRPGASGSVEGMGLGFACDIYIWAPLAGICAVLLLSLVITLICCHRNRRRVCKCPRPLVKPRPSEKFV
Briefly: FACS with CD8+ cells isolated from rat blood.

Experiment [10] has as its target T5, human CD8 on cells (FACS). Put plainly: FACS titration on cells carrying human CD8 (legend paragraph 23: CHO cells expressing recombinant human CD8; text paragraph 256: PBMCs).
In experiment [11] the target is T2, human CD8 (as used in SPR). Briefly: SPR, Fab.
In experiment [12] the target is T7, mouse CD8 on CD8+ cells isolated from mouse blood (mouse, UniProt P01731 28-247).
T7 construct: whole, on cells
T7 sequence (P01731 28-247): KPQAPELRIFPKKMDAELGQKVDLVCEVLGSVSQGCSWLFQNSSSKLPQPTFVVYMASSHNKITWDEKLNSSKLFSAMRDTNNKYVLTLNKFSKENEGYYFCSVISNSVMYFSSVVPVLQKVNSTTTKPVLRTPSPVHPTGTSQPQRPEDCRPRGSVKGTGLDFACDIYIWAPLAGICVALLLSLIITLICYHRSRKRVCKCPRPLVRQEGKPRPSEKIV
Briefly: FACS with CD8+ cells isolated from mouse blood.

Residue numbers refer to the chain shown, from its start.

T2 sequence (P01732 22-182): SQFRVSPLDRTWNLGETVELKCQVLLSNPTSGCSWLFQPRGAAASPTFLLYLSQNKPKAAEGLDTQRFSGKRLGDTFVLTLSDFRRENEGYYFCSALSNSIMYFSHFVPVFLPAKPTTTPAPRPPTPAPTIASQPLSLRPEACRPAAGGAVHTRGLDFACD

B1: huOKT8.v9 (Fab, V domains shown)
VH: EVQLVQSGAEVKKPGASVKVSCKASGFNIKDTYIHWVRQAPGQGLEWIGRIDPANDNTLYASKFQGRATITADTSTSTAYLELSSLRSEDTAVYYCGRGYGYYVFDHWGQGTLVTVSS
VL: DVQITQSPSSLSASVGDRVTITCRTSRSISQYLAWYQEKPGKTNKLLIYSGSTLQSGIPSRFSGSGSGTDFTLTISSLQPEDFATYYCQQHNEFPVTFGQGTKVEIKR
notes: also called OKT.v9 Fab
Turning to B1, the “fold improvement in binding compared to huOKT8.v1” value in experiment [1] worked out at 50 fold. Moreover, in experiment [2], the “Ratio of KD huOKT8.v1/KD variant for binding to huCD8” value (“Ratio of KD huOKT8.v1/KD variant” below) was found to be 37 X. The Kd in experiment [3] was 103 nM; in experiment [4], 0.3 nM; in experiment [5], 121 nM; in experiment [6], 44 nM; in experiment [7], 2 nM.

B2: huOKT8.v1 (antibody, V domains shown)
VH: B1 VH
VL: DVQITQSPSSLSASVGDRVTITCRTSRSISQYLAWYQEKPGKTNKLLIYSGSTLQSGIPSRFSGSGSGTDFTLTISSLQPEDFATYYCQQHNENPLTFGQGTKVEIK
In [8], B2 showed a Kd of 5250 nM.

B3: huOKT8.v15 (antibody, V domains shown)
VH: B1 VH with S62R, G97T, H107T
VL: B1 VL with H91V
notes: The entries as printed are a Fab heavy chain and a whole kappa light chain
On to B3, for which, in [2], the “Ratio of KD huOKT8.v1/KD variant” value turned out to be 210 X.

B4: huOKT8.v11 (Fab, V domains shown)
VH: B1 VH
VL: B1 VL with H91V, V96P
notes: also called OKT.v11 Fab
Consider B4, for which the binding result in [9] and in experiment [12] was “no binding” each time. Besides, the “EC50 (read off the curve)” value in experiment [10] is about 0.8 µg/mL. The entries for the “fold improvement in binding compared to huOKT8.v1” value in experiment [1] and in experiment [11] were 230 fold and 55 fold, respectively. Besides, the “Ratio of KD huOKT8.v1/KD variant” value in experiment [2] was 37 X. The Kd is 23 nM in experiment [3]; 0.2 nM in experiment [4]; 20 nM in [5]; 13 nM in [6]; 2 nM in experiment [7].

B5: huOKT8.v10 (antibody, V domains shown)
VH: B1 VH
VL: B1 VL with V96P
notes: as for B3
As to B5, the “Ratio of KD huOKT8.v1/KD variant” value in experiment [2] turned out to be 18 X.

B6: huOKT8.v17 (antibody, V domains shown)
VH: B1 VH
VL: B1 VL with Q31K, H91V
notes: as for B3
Take B6: the “Ratio of KD huOKT8.v1/KD variant” value in [2] is 210 X.

B7: huOKT8.v12 (antibody, V domains shown)
VH: B1 VH
VL: B2 VL with H91V, N94F, L96V
For the molecule B7, the “Ratio of KD huOKT8.v1/KD variant” value in experiment [2] turned out to be 73 X.

Values taken from patent publication US20200172620A1 (Genentech, published 2020).
